The record followed here is PMC10636324 (Proceedings of the National Academy of Sciences of the …, 2023).

B1: GST-TBC1D23^514-558 F537L (domain or fragment, human, UniProt Q9NUY8-2 514-558, looked up)
chain: TPVDRHVSSSDRVGKPYRGVKPVLSIGDEEEYDTDEIDSSSMSDD
B2: GST-TBC1D23^514-558 R518Q (domain or fragment, human, UniProt Q9NUY8-2 514-558, looked up)
chain: B1 chain with R5Q, L24F
B3: GST-TBC1D23^514-558 P529A (domain or fragment, human, UniProt Q9NUY8-2 514-558, looked up)
chain: B1 chain with P16A, L24F
B4: GST-TBC1D23^514-558 wild type (domain or fragment, human, UniProt Q9NUY8-2 514-558, looked up)
chain: B1 chain with L24F
B5: GST-TBC1D23^514-558 K534N (domain or fragment, human, UniProt Q9NUY8-2 514-558, looked up)
chain: B1 chain with K21N, L24F
B6: GST-TBC1D23^514-558 T514A (domain or fragment, human, UniProt Q9NUY8-2 514-558, looked up)
chain: B1 chain with T1A, L24F
B7: GST-TBC1D23^514-558 V533I (domain or fragment, human, UniProt Q9NUY8-2 514-558, looked up)
chain: B1 chain with V20I, L24F
B8: GST-TBC1D23^514-558 R531H (domain or fragment, human, UniProt Q9NUY8-2 514-558, looked up)
chain: B1 chain with R18H, L24F
B9: GST-TBC1D23^514-558 R531C (domain or fragment, human, UniProt Q9NUY8-2 514-558, looked up)
chain: B1 chain with R18C, L24F
B10: TBC1D23^514-538 wild type (peptide, UniProt Q9NUY8-2 514-538, looked up)
peptide: TPVDRHVSSSDRVGKPYRGVKPVFS
B11: TBC1D23^514-538 F537L (peptide, UniProt Q9NUY8-2 514-538, looked up)
peptide: TPVDRHVSSSDRVGKPYRGVKPVLS
B12: TBC1D23^514-538 R531H (peptide, UniProt Q9NUY8-2 514-538, looked up)
peptide: TPVDRHVSSSDRVGKPYHGVKPVFS
B13: TBC1D23^514-538 R531C (peptide, UniProt Q9NUY8-2 514-538, looked up)
peptide: TPVDRHVSSSDRVGKPYCGVKPVFS

Changes are numbered by the printed parent chain. Names and notes keep the numbering of the source.

In the first assay the target is T1, FAM91A1^N (N terminus of FAM91A1, residues 1-328), wild type (UniProt Q658Y4 1-328).
T1 sequence (looked up): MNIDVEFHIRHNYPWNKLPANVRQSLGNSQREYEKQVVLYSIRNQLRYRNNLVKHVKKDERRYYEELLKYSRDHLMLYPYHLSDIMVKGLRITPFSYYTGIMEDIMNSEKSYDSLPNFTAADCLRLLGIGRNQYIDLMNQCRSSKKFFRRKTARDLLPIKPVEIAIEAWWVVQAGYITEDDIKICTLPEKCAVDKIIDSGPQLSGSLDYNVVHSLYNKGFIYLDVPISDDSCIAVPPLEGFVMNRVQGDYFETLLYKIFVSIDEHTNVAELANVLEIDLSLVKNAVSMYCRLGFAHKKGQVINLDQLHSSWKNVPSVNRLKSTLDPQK
Briefly: pull-down.
For the molecule B1, the binding result was “binds”.

Turning to B2, the binding result is listed as “binds”.

For the molecule B3, the binding result is on record as “binds”.

With B4, the binding result was “binds”.

With B5, the binding result is listed as “binds”.

Turning to B6, the binding result was “binds”.

As to B7, the binding result is recorded as “binds”.

With B8, the binding result is “binds”.

As to B9, the binding result is recorded as “binds”.

The next assay concerns the target T1, FAM91A1^N (N terminus of FAM91A1, …). The assay can be described thus: ITC.
For the molecule B10, the affinity, expressed as Kd, was 1.15 ± 0.16 µM.

On to B11, for which the “affinity as percent of that of WT” value was approximately 16.4%.

In the case of B12, the “affinity as percent of that of WT” value was approximately 7.9%.

As for B13, the “affinity as percent of that of WT” value was approximately 6.6%.
